A short description of the data set: yeast display, Sf9 membrane polyspecificity reagent, FACS + sequencing; frameworks hold sequencing errors. In short, it runs like this:
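Sorting gates, low and high (top ~1%), were placed on anti-HA fluorescence to track expression and on streptavidin fluorescence to track reagent binding. A clone's polyreactivity label is taken from the gate it came out of. The reagent was 10% biotinylated, detergent-solubilized Sf9 membrane, applied for 1 hour at 4 °C to galactose-induced yeast display cells.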
Consider “QVQLVESGGGLVHAGGSLRLSCASTGFIYQPYAMGWYRQAPGKEMELVAAITSRGGRTYYADSVKGRFTISRDIANNTVYLQMNRLNPVDTAVYYCNADIYASEYYYWGQGTQVTVSS”, for which the “polyreactivity (PSR sort gate)” value is reported as “low polyreactivity”. For “QVQLVESGGGLVQAGGSLRLSCAASGIIFITNAMGWYRQAPGKERDLVAVISFSGGGTYADSVKGRFTISRDNAKNTVYLQMNSLTPEDTAVYYCAKYWLSALTLEDDYWGQGTQVTVSS”, the “polyreactivity (PSR sort gate)” value is given as “low polyreactivity”. As to “QVQLVESGGGLVQAGGSLLLSCAASGLIFDPYAMGWYRQAPGKERELVADISSGGSTNYADSVKGRFTISRDNAKNTVYLQMNSLKPEDTAVYYCNKTIILDGYYFSLTLYDSWGQGTQVTVSS”, the “polyreactivity (PSR sort gate)” value was “low polyreactivity”. With “QVQLVESGGGLVQAGGSLRLSCAASGRTFRWYAMGWYRQAPGKERELVAAIRRSGGGTYYADSVKGRFTISRDNAKNTVYLQMNSLKPEDTAVYYCNTDYPVYQRGVISDGFDYWGQGTQVTVSS” the entry was “low polyreactivity”; with “QVQHVESGGVLVQAGGSLRLSCAASGRTFISNVMGWYRPAPGKERELVAGITGGGNTYYADSVKGRFTISRDNAKNTVYLQMNSLKPEDTAVYYCAVRYPSYGLSYVRYGYWGQGTQLTVSS”, “high polyreactivity”. “QVQLVESGGGLVQAGGSLRLSCAASGNTFFVYAMGWYRQAPGKERELVADINWSTGSTYYADFVKGRFTLSRDNAKNTVYLQMNSLKPEDTAVYYCAAEAYYYVIFHGSWYTDDYWGQGTQVTVSS”: the “polyreactivity (PSR sort gate)” value was “low polyreactivity”. For the sequence “QVQLVESGGVLVQAGGSLRLSCAASGSTFWTNTMGWYRQAPGKERELVAAISRRGGTTYYADSVKGRFTISRDNAKNTVYLQMNSLKPEDTAVYYCATSLIGKTVPLRVYYWGQGTQVTVSS”, the “polyreactivity (PSR sort gate)” value is listed as “high polyreactivity”. As for “QVQLVESGGGLVQAGGSLRLSCAASGSTFKRYAMGWYRQAPGKEMELVAAISTRGSTYYADSVKGRFTISRDNAKNTVYLQMNRLKPEETAVYYCNADVGAWAWYTRYDYWGQGTQVTVSS”, the “polyreactivity (PSR sort gate)” value was “low polyreactivity”. On to “QVQLVESGGGLVQAGGSLRLSCAASGRTFLLNAMGWYRQAPGKERELVAAITGSGGRTNYADSVKGRFTISRDNAKNTVYLQMNSLKPEDTAVYYCNARFPDWALSEISHSTTYGYWGQGTQVTVSS”, for which the “polyreactivity (PSR sort gate)” value is “low polyreactivity”.

As for “QVQLVESGGGLVQAGGSLRLSCAASGSTFKVYAMGWYRQAPGKESELVATISKSGSTYADSVKGRFTISRDNAKNTVYLQMNSLKPEDTAVYYCARVKYSGVVYKYDYWGQGTQVTVSS”, the “polyreactivity (PSR sort gate)” value is on record as “high polyreactivity”.

On to “QVQLVESGGGLFQAGGSLRLSCAASGSIFSWNDIGRYIQAPGKERELVAAITSGGSTYYADSVKGRFTISRDNAKNTVYLQMNSLKPEDTAVYYCAAGQDLHDFDYWGQGTQVTVSS”, for which the “polyreactivity (PSR sort gate)” value is on record as “low polyreactivity”.

As for “QVQLVESGGGLVQAGGSLRLSCAASGSTFNNNAMGWYRQAPGKERELVAAISYTGGSTYYADSVKGRFTISRDNAKNTVYLQMKSLKPEDTAVYYCDAAYPHFGGYRYDYWGQGTQVTVSS”, the “polyreactivity (PSR sort gate)” value is “high polyreactivity”.

For the sequence “QVQLVESGGGLVQAGRSLRLSCASSGRIFWDYAMGWYRQAPGKERELVAAISWGSGRTYYADSVKGRFTISRDNAKNTVYLQMNSLKPADSAVDYCAARSSYRKMDYWGQGTQVTVSS”, the “polyreactivity (PSR sort gate)” value was “high polyreactivity”. In the case of “QVQLVETGGGLVQAGGSLRLSCAASGTLSSYAMGWYRPAPGTERELVAAISLSGGSTYADSVKGRFTISRDNAKNTVYLQMNSLKPEDTAVYYCAATSSFRYDYWGQGTQVTVSS”, the “polyreactivity (PSR sort gate)” value was “low polyreactivity”. As for “QVQLVESGGGLVQAGGSLRLSCAASGRTFPYYAMGWYRQAPGKERELVAVITSGASTYYADSVKGRFTISRDNAKNTVYLQMNSLKPEDTAVYYCNARYSWKYDYWGQGTQVTVSS”, the “polyreactivity (PSR sort gate)” value is “high polyreactivity”. Take “QVQLVESGGGLVQAGGSLRLSCAASGFIFNHNAMGWYRQAPGKERELVAAISSGGRTYYADSVKGRFTISRDNAKNTVYLQMNSLKPEDTAVYYCAKDTKYSSQYGKYGYWGQGTQVTVSS”: the “polyreactivity (PSR sort gate)” value is listed as “low polyreactivity”.

Regarding “QVQLVESGGGLVQAGGSLRLSCAASGSTFELYAMGLYRQAPGKERELVASITGDSTNYADSVKGRFTISRDNAKNTVYLQMNSLKPEDTAVYYCAAEYVPYYEYESWGQGTQVTVSS”, the “polyreactivity (PSR sort gate)” value is on record as “low polyreactivity”. For the sequence “QVHLVESGGGLFQAGGSLRLRCAASGFTFASNAMGWYIQAPGKERELVAAITRSGGSTFYADSVKGRFTISRDNAKNTVYLQMKSLKPEDTAVYYCNAAPYGFGWRVRAFTGYDYWGQGTQVTVSS”, the “polyreactivity (PSR sort gate)” value is “low polyreactivity”. Consider “QVQLVESGGGLVQAGGSLRLICAASGGIFNRYAMGWYRQAPGKEREFVASISRRGGSTYYADSVKGRFTISRDNAKNTVYLQMNSLKPDDTAVYFCGAEYNSEYDYWGQGTQVTVSS”, for which the “polyreactivity (PSR sort gate)” value is “high polyreactivity”. “QVQLVESGGGLVQAGGSLRLSCAASGSTFFGYVMGWDRQAPGKERELVAAIRSSGGSTYYADSVKGRFTISRDNAKNTVYLQINSLKPEDTAVYYCAASYRYDAYSHYDYWGQGTQVTVSS”: the “polyreactivity (PSR sort gate)” value was “low polyreactivity”. With “QVQLVESGGGLVQAGGSLRLSCAASGIIFGIYAMGWYRQAPGKEREFVAAISWSDGSTRYADSVKGRFTISRDNAKNTVYLQMNCLKPEDTAVYYCNTDIGPLDFGEYSYPDDYWGQGTQVTVSS”, the “polyreactivity (PSR sort gate)” value is recorded as “low polyreactivity”. For the sequence “QVQLVESGGGLVQAGRSLRLICAASGFTSHVYAMGWYRQAPGKERELVAAISSGSSTYYADSVKGRFTISRDNAKNTVYLQRNSLKPEDTAVYYCATTHKTLRRYESWGQGTQVTVSS”, the “polyreactivity (PSR sort gate)” value is reported as “low polyreactivity”. With “QVQLLESGGGLVQAGGSLRLSCAASGRTFRHNVMAWYRQAPGNERELVAAISYSRGSTHYADSVKGRFTISRDNAKNTVYFQMNSLKPEANAVYYCNRYSYDAHFLYPFRGHDYWGQGTQVTVTS”, the “polyreactivity (PSR sort gate)” value is “low polyreactivity”. On to “QVQLVESWGGLVQAGGSLRLSCAASGFIFRYYAMGWYRQAPGKERELVAAISWSGGSTYYADSVKGRFTISRDNAKYTVYLQMNSLKPVDTAVYYCAADKRGSVYLSSFWMDYWGQGSQVTVSS”, for which the “polyreactivity (PSR sort gate)” value is reported as “low polyreactivity”. With “QVQLVESGGGLVQAGGSLRLSCAASGRIIAYNTMGWNRQAHWKERDWVAAISSRGGRTYYADSVKGRFTISRDNAKNTVYLEMNSLKPEDTAVYYCAAKYYRYGDPDRYDYWGQGTQVTVSS”, the “polyreactivity (PSR sort gate)” value was “high polyreactivity”. For “QVQLVESGGGLVQAGGSLRLSCAASGRTFPFYAMGWYRQPPAKERELVAVITWRGSNTYADSVKGRFTISRDNAKNTVYLQMNSLKPEVTAVYYCAADAWRSYGYRAYDYWGQVTQVTVSS”, the “polyreactivity (PSR sort gate)” value is “low polyreactivity”. In the case of “QVQLVESGGGLVQAGGSLRLSCAASGSTLGRYTMGWYRQAPGKERELVATITASGGGTYYADSVKGRFTISRDTAKNTVYLQMNSLKPEDTAVYYCNAVLWYHFGYDYWGQGTQVTVSS”, the “polyreactivity (PSR sort gate)” value is recorded as “low polyreactivity”. With “QVQLVETGGGLVQAGGSLRLSCAASGSIFDWYAMGWYRQAPGKEGELVAAISSGDSTYYADSVKGRFTISRDNAKNTVYLKMNSLKPEDTAVYYCAAVTKLSGIRYNYWGQGTQVTVSS”, the “polyreactivity (PSR sort gate)” value is “low polyreactivity”.

In the case of “QVQLVESGGGLVQAGGSLRLSCAASGLIFYLYTMGWYRQAPGQERELVAAISRSGGSTYYADSVKGRFTISRDNAKNTVYVQMNSLKPEDPAVYYCAALRSRSTYNDYNYWGQGTQVTVSS”, the “polyreactivity (PSR sort gate)” value is given as “high polyreactivity”. With “QVQLVESGGGVDQAGVSLRLSCAASGIICFGYAMGWYRQAPGNERELVARITRSGASTYYADSVKGRFTISRDNAKKTVYLQMYSLTPEDTPVSYCAADYRKRYDYWGQGTQVTVSS”, the “polyreactivity (PSR sort gate)” value is “low polyreactivity”.
